Data on eight molecules can be found in patent US20240270866A1 (Alector, published 2024).

Assay [1] addresses T1, human SIRPA Fc fusion antigen (human, UniProt P78324 31-373).
T1 construct: heterologous signal peptide; not shown: human IgG1 Fc
Put plainly: ForteBio Fab monovalent.

Assay [2] has as its target T2, mouse SIRPA overexpressed on CHO cells (mouse, UniProt P97797 32-513).
T2 construct: also called CHO-muSIRPA
T2 sequence: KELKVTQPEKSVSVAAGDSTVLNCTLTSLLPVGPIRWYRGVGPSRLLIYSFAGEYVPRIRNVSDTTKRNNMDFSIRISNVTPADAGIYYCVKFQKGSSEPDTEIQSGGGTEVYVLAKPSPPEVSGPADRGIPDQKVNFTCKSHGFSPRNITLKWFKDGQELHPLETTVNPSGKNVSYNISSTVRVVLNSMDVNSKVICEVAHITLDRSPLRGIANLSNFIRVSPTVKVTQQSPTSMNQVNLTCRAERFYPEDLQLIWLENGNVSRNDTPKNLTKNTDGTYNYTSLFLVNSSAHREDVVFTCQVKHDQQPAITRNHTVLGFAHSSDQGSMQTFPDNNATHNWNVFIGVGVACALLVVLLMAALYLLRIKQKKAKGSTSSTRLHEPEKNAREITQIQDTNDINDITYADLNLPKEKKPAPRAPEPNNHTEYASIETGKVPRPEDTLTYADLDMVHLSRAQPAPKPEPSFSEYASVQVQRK
Put plainly: flow, CHO-muSIRPA.

Assay [3] concerns the target T3, Human SIRPA D1 Fc (human, UniProt P78324 32-137).
T3 construct: not shown: human IgG1 Fc
Put plainly: ForteBio IgG avid.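 Also: antibody IgG captured on AHQ biosensors, then 100 nM Fc-fused SIRP antigen applied for 3 min, followed by 3 min buffer dissociation, kinetics fitted to a 1:1 model.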 For orientation: In BLI a coated tip is dipped into the sample, and binding shifts an interference pattern.

Assay [4] has as its target T4, Mouse SIRPA D1 Fc (mouse, UniProt P97797 32-150, limits assumed).
T4 sequence: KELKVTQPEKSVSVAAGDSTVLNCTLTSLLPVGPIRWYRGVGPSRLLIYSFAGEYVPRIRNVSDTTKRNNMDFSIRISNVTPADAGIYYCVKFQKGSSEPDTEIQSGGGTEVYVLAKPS
Put plainly: ForteBio IgG avid.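 Also: antibody IgG captured on AHQ biosensors, then 100 nM Fc-fused SIRP antigen applied for 3 min, followed by 3 min buffer dissociation, kinetics fitted to a 1:1 model.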

Assay [5] deals with Human SIRPb D1 Fc (human, UniProt O00241 30-148, limits assumed). Put plainly: ForteBio IgG avid.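 Also: antibody IgG captured on AHQ biosensors, then 100 nM Fc-fused SIRP antigen applied for 3 min, followed by 3 min buffer dissociation, kinetics fitted to a 1:1 model.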
Human SIRPb D1 Fc, sequence (O00241 30-148 limits assumed): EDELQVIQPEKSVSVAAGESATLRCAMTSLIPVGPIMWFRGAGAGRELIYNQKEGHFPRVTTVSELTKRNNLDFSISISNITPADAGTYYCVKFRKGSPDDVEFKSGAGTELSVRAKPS
In assay [6] the target is T5, human SIRPA overexpressed on CHO cells (human, UniProt P78324 31-504).
T5 construct: also called CHO-huSIRPA
Kind of assay: flow, CHO-huSIRPA.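 Also: Anti-SIRPA antibodies applied at 1 µg/mL for 1 h on ice, binding read by flow cytometry using a PE-labelled secondary antibody.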

The target of assay [7] is T2, mouse SIRPA overexpressed on CHO cells. Kind of assay: flow, CHO-muSIRPA. This is another data set of the same source.

The term Kd denotes the concentration at which binding is half-saturated. Higher therefore signals a looser complex.

B1: SA-13-68 Fab (Fab, V domains shown)
VH: EVQLLESGGGLVQPGGSLRLSCAASGFTFTEYAMSWVRQAPGKRLEWVSAISGSGGSTYYADSVKGRFTISRDNSKNTLYLQMSSLRAEDTAVYYCARDNIQWGPHFYWGQGTLVTVSS
VL: DIQMTQSPSSLSASVGDRVTITCRASQSISSYLNWYQQKPGKAPKLLIYAASSLQSGVPSRFSGSGSGTDFTLTISSLQPEDFATYYCQQGYIYPPTFGGGTKVEIK
notes: papain Fab
On to B1, for which the Kd in assay [1] was 81.5 nM.

B2: SA-8-64 Fab (Fab, V domains shown)
VH: QVQLVESGGGLVKPGGSLRLSCAASGFTFSSYSMHWVRQAPGKGLEWVSSISSSDSWIYYADSVKGRFTISRDNAKNSLYLQMNSLRAEDTAVYYCAKEPRSYWHGYGMDVWGQGTTVTVSS
VL: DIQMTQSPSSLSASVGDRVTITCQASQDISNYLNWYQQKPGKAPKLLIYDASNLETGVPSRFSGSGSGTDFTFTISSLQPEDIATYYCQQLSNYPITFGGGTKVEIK
notes: papain Fab
Take B2: the Kd in assay [1] was found to be 27.7 nM. Against the preceding molecule, the Kd is about 2.9-fold lower.

B3: SA-8-67 Fab (Fab, V domains shown)
VH: EVQLVESGGGLVKPGGSLRLSCAASGFTFSSYSMHWVRQAPGKGLEWVSSISSSPSHIYYADSVKGRFTISRDNAKNSLYLQMNSLRAEDTAVYYCAKEPRSYWHGYGMDVWGQGTTVTVSS
VL: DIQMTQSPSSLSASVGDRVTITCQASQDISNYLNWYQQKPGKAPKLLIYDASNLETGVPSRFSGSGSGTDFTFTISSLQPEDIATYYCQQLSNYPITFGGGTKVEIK
notes: papain Fab
Molecule B3 displayed a Kd in assay [1] of 131 nM.

B4: SA-8-62 Fab (Fab, V domains shown)
VH: QVQLVESGGGLVKPGGSLRLSCAASGFTFSSYSMHWVRQAPGKGLEWVSSISSSDSWIYYADSVKGRFTISRDNAKNSLYLQMDSLRAEDTAVYYCAKERVDYWHGYGMDVWGQGTTVTVSS
VL: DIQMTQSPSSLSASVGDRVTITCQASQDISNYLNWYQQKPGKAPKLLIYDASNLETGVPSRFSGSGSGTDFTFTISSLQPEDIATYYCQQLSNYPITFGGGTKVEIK
notes: papain Fab
Regarding B4, the Kd in assay [1] stood at 8.92 nM.

B5: SA-14 (antibody, V domains shown)
VH: EVQLVESGGGLVKPGGSLRLSCAASGFTFSSYSMNWVRQAPGKGLEWVSSISSSSSYIYYADSVKGRFTISRDNAKNSLYLQMNSLRAEDTAVYYCARDGSMYYGDPMDVWGQGTTVTVSS
VL: DIQLTQSPSSLSASVGDRVTITCQASQDISNFLNWYQQKPGKAPKLLIYDASNLETGVPSRFSGSGSGTDFTFTISSLQPEDIAKYYCQQFINFPLTFGGGTKVEIK
notes: IgG
Turning to B5, the binding result in assay [2] is on record as “no binding (tested: 1 ug/ml)”; in assay [4] it was “no binding (tested: 100 nM)”; in assay [5] it was “no binding (tested: 100 nM)”. The molecule also yielded a Kd in assay [3] of 31 nM. Also, the “relative MFI” value in assay [6] was 24.4 fold over background; in assay [7], 0.732 fold over background.

B6: SA-12 (antibody, V domains shown)
VH: QVQLVQSGAEVKKPGASVKVSCKASGYTFTSYYIHWVRQAPGQGLEWMGIINPSGGSTSYAQKFQGRVTMTRDTSTSTVYMELSSLRSEDTAVYYCARAPGSWFYWGQGTLVTVSS
VL: EIVLTQSPATLSLSPGERATLSCRASQSVSSYLAWYQQKPGQAPRLLIYDASNRATGIPARFSGSGSGTDFTLTISSLEPEDFAVYYCQQRTNFPITFGGGTKVEIK
notes: IgG
As for B6, the binding result is listed as “no binding (tested: 1 ug/ml)” in assay [2], “no binding (tested: 100 nM)” in assay [4] and “no binding (tested: 100 nM)” in assay [5]. Binding in assay [3] was put at a Kd of 13 nM. The figures for the “relative MFI” value in assay [6] and in assay [7] were 52 fold over background and 0.548 fold over background, respectively.

B7: SA-19 (antibody, V domains shown)
VH: QVQLVESGGGVVQPGRSLRLSCAASGFTFSSYGMHWVRQAPGKGLEWVAVISYDGSNKYYADSVKGRFTISRDNSKNTLYLQMNSLRAEDTAVYYCARDLTKYTLGFAFDIWGQGTMVTVSS
VL: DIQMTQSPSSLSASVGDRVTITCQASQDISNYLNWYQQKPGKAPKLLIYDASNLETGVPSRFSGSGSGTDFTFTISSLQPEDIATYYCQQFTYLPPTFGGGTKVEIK
notes: IgG; also called SA-19 (parental)
As to B7, the binding result in assay [2] is recorded as “no binding (tested: 1 ug/ml)”; in assay [3] it was “binds”; in assay [4], “no binding (tested: 100 nM)”. Further, the “relative MFI” value in assay [7] was 0.601 fold over background.

B8: SA-23 (antibody, V domains shown)
VH: QVQLVQSGAEVKKPGASVKVSCKASGYTFTSYGISWVRQAPGQGLEWMGWISTYNGNTNYAQKLQGRVTMTTDTSTSTAYMELRSLRSDDTAVYYCARDQGTGTTVDLDLWGRGTLVTVSS
VL: not shown
notes: IgG
Consider B8, for which the dissociation constant Kd in assay [3] came to 38 nM. For the same molecule, the “relative MFI” value was 21.1 fold over background in assay [6] and 0.533 fold over background in assay [7].
